Experimental data reported in the supplement of paper PMC10126150.
± gives the standard deviation of the averaged measurements.

Tested on: ATP
Assay: switch fluorescence ratio, 500 uM ATP over buffer (Cy3 cluster intensity, sum of 5 cycles each) (fold (ratio)); higher = stronger signal-on switching upon ATP binding; sequences stand for … in TCGTCGGCAGCGTCAGATGTGTATAAGAGACAGTTTTTTTTTTTTTTTTTTTTTTTTT…TC
Details: aptamer strand: ATP DNA aptamer (quencher-CACCTGGGGGAGTATTGCGGAGGAAGG + anchor), 100 nM annealed; ATP concentration: 500 uM
In short: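 Clusters with intensities outside 100-1000 RFU were excluded. The remaining Cy3-labelled switching-strand clusters on a modified Illumina MiSeq flow-cell had been annealed to 100 nM quencher-labelled ATP aptamer and imaged in selection buffer, then after 15 min with 500 uM ATP at 22 °C, for five cycles separated by NaOH stripping and re-annealing. The fluorescence ratio, averaged per switch-domain sequence, is each cluster's summed target-cycle Cy3 intensity over its summed buffer-cycle Cy3 intensity.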
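Further: ATP exposure 15 min at 22 °C before imaging.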

| Sequence | switch fluorescence ratio |
| --- | --- |
| CGGTTGCTTA | 0.987 ± 0.012 |
| CGGTTGGGAG | 1.019 ± 0.0064 |
| CGGTTGGTAT | 0.969 ± 0.051 |
| CGGTTGTAAA | 1.02 ± 0.013 |
| CGGTTGTAAT | 1.03 ± 0.041 |
| CGGTTGTTTG | 0.974 ± 0.015 |
| CGGTTTAGGG | 0.986 ± 0.026 |
| CGGTTTATAT | 0.99 ± 0.013 |
| CGGTTTCAAG | 0.972 ± 0.042 |
| CGGTTTCCTC | 1.11 ± 0.074 |
| CGGTTTGGCT | 1.08 ± 0.12 |
| CGGTTTTAAT | 0.99589 ± 0.00077 |
| CGGTTTTAGG | 1.0066 ± 0.00065 |
| CGGTTTTTAC | 1.08 ± 0.041 |
| CGGTTTTTTA | 0.964 ± 0.025 |
| CGTAAACTTG | 1.02 ± 0.023 |
| CGTAAATATA | 1.03 ± 0.015 |
| CGTAAGAGCT | 1 ± 0.016 |
| CGTAATCATC | 1.13 ± 0.023 |
| CGTAATTTCA | 1.02 ± 0.013 |
| CGTACACGTT | 1.02 ± 0.051 |
| CGTACATTTA | 1.03 ± 0.051 |
| CGTACCAACC | 1.2 ± 0.029 |

| Sequence | switch fluorescence ratio |
| --- | --- |
| CGTACCTGCG | 1.06 ± 0.042 |
| CGTACGGACC | 1.26 ± 0.046 |
| CGTACGGGTT | 0.9959 ± 0.0039 |
| CGTACTAAAA | 1.06 ± 0.036 |
| CGTAGAATGC | 1.44 ± 0.082 |
| CGTAGAGCGG | 1 ± 0.074 |
| CGTAGGATTG | 1.02 ± 0.03 |
| CGTAGGGCAG | 0.991 ± 0.049 |
| CGTAGGGGGG | 0.986 ± 0.03 |
| CGTAGGGGTG | 0.969 ± 0.014 |
| CGTAGGGTTG | 0.974 ± 0.057 |
| CGTAGTAGTG | 0.993 ± 0.027 |
| CGTAGTTCGA | 1.02 ± 0.018 |
| CGTATAACTC | 1.11 ± 0.014 |
| CGTATGCCGA | 0.961 ± 0.016 |
| CGTATGGATA | 0.998 ± 0.028 |
| CGTATGTTGG | 1.04 ± 0.012 |
| CGTATTCATA | 0.977 ± 0.037 |
| CGTATTTAGA | 0.99 ± 0.064 |
| CGTATTTCTG | 0.938 ± 0.072 |
| CGTATTTTTA | 1 ± 0.089 |
| CGTCAAGGTG | 1.42 ± 0.24 |
| CGTCAGCACT | 1.79 ± 0.04 |

| Sequence | switch fluorescence ratio |
| --- | --- |
| CGTCATTAAA | 0.984 ± 0.023 |
| CGTCATTCGC | 1.05 ± 0.16 |
| CGTCATTTAT | 1 ± 0.06 |
| CGTCCATATG | 1.016 ± 0.0089 |
| CGTCCTGGCT | 1.02 ± 0.07 |
| CGTCCTGGGT | 0.995 ± 0.011 |
| CGTCGATAAT | 1.03 ± 0.035 |
| CGTCGGCGCC | 1.09 ± 0.12 |
| CGTCGGTTAG | 1.01 ± 0.015 |
| CGTCGTAGTG | 0.989 ± 0.016 |
| CGTCTTCCTG | 1 ± 0.056 |
| CGTCTTGCCC | 0.9853 ± 0.0052 |
| CGTGAAAGCA | 1.02 ± 0.067 |
| CGTGAAAGTG | 0.991 ± 0.019 |
| CGTGAAATCG | 1.02 ± 0.019 |
| CGTGAAATGT | 0.9863 ± 0.0075 |
| CGTGAAGATG | 0.9674 ± 0.0068 |
| CGTGAAGGTG | 1.24 ± 0.074 |
| CGTGACCTTT | 1.02 ± 0.048 |
| CGTGACGGTT | 1.03 ± 0.062 |
| CGTGACTCTA | 1.03 ± 0.046 |
| CGTGACTGGT | 0.9683 ± 0.005 |
| CGTGAGAGCA | 1.01 ± 0.035 |

| Sequence | switch fluorescence ratio |
| --- | --- |
| CGTGAGCTAG | 1.03 ± 0.029 |
| CGTGAGCTTG | 1.0004 ± 4.9e-05 |
| CGTGATGTTT | 1 ± 0.047 |
| CGTGATTATA | 0.992 ± 0.0072 |
| CGTGATTCGC | 1.018 ± 0.0023 |
| CGTGCAAAGG | 1.05 ± 0.013 |
| CGTGCCATAG | 1 ± 0.015 |
| CGTGCCCTGC | 1.06 ± 0.028 |
| CGTGCGCATA | 3.77 ± 1.4 |
| CGTGCGTCGG | 1.01 ± 0.017 |
| CGTGCGTGCT | 1.01 ± 0.023 |
| CGTGCTGGCA | 1.019 ± 0.0064 |
| CGTGCTGGTT | 1.01 ± 0.061 |
| CGTGCTGTA | 1.046 ± 0.0054 |
| CGTGGAGCGA | 1.04 ± 0.02 |
| CGTGGAGGGA | 1.01 ± 0.027 |
| CGTGGATACT | 1.23 ± 0.057 |
| CGTGGATAGC | 1.02 ± 0.055 |
| CGTGGATGAC | 0.9939 ± 0.0096 |
| CGTGGATTCC | 1.03 ± 0.011 |
| CGTGGATTTA | 0.983 ± 0.011 |
| CGTGGCAGGA | 1.03 ± 0.021 |
| CGTGGGGGAT | 1.01 ± 0.029 |

| Sequence | switch fluorescence ratio |
| --- | --- |
| CGTGGGGTGG | 1.02 ± 0.045 |
| CGTGGGTTCG | 0.961 ± 0.025 |
| CGTGGTGTGT | 0.992 ± 0.0011 |
| CGTGGTGTTG | 0.991 ± 0.015 |
| CGTGGTTAAG | 1.01 ± 0.038 |
| CGTGGTTCAG | 0.996 ± 0.014 |
| CGTGTCCGGT | 1.01 ± 0.043 |
| CGTGTGATGC | 1.05 ± 0.015 |
| CGTGTGATGT | 0.973 ± 0.03 |
| CGTGTGGCGT | 1.05 ± 0.016 |
| CGTGTGGCTG | 0.992 ± 0.034 |
| CGTGTGGGGA | 1.02 ± 0.045 |
| CGTGTTAATT | 0.982 ± 0.034 |
| CGTGTTGTTG | 1.02 ± 0.022 |
| CGTTAAACGT | 1.01 ± 0.036 |
| CGTTAATTTT | 0.983 ± 0.026 |
| CGTTACTACG | 1.06 ± 0.028 |
| CGTTACTGGT | 0.973 ± 0.016 |
| CGTTAGCGGG | 1 ± 0.018 |
| CGTTAGGCGC | 0.985 ± 0.013 |
| CGTTAGGGCA | 0.979 ± 0.02 |
| CGTTAGTATT | 0.9936 ± 0.00056 |
| CGTTAGTGTA | 0.99 ± 0.023 |

| Sequence | switch fluorescence ratio |
| --- | --- |
| CGTTATATAA | 1.04 ± 0.014 |
| CGTTATCGTG | 0.9826 ± 0.0061 |
| CGTTATGGGC | 0.979 ± 0.022 |
| CGTTATTCAC | 1.03 ± 0.036 |
| CGTTATTGAG | 0.95 ± 0.016 |
| CGTTATTGGC | 1.02 ± 0.034 |
| CGTTATTTAT | 0.9985 ± 0.0089 |
| CGTTCAACGA | 1 ± 0.029 |
| CGTTCACCGG | 0.959 ± 0.049 |
| CGTTCACCTG | 0.996 ± 0.038 |
| CGTTCCAGGC | 1.083 ± 0.0064 |
| CGTTCCCCCA | 1.355 ± 0.013 |
| CGTTCGCCGG | 0.99801 ± 8.6e-05 |
| CGTTCTAGTG | 0.974 ± 0.011 |
| CGTTCTGGGG | 0.984 ± 0.05 |
| CGTTCTGGTC | 0.999 ± 0.046 |
| CGTTGAATAA | 1.017 ± 0.0089 |
| CGTTGATGCT | 1.01 ± 0.02 |
| CGTTGCACCT | 0.952 ± 0.051 |
| CGTTGCAGGG | 0.984 ± 0.024 |
| CGTTGCTATG | 1.01 ± 0.028 |
| CGTTGCTTTG | 0.9869 ± 0.0016 |
| CGTTGGAAGG | 0.985 ± 0.021 |

| Sequence | switch fluorescence ratio |
| --- | --- |
| CGTTGGCGTG | 0.947 ± 0.036 |
| CGTTGGGAAG | 0.9779 ± 0.0087 |
| CGTTGGGTGG | 1.02 ± 0.076 |
| CGTTGTAAAT | 0.9823 ± 0.0071 |
| CGTTGTATAG | 0.971 ± 0.016 |
| CGTTGTGGAA | 1.006 ± 0.0056 |
| CGTTGTTCGA | 1.02 ± 0.012 |
| CGTTGTTGAA | 0.968 ± 0.036 |
| CGTTGTTGGT | 1.015 ± 0.009 |
| CGTTTAACAC | 0.997 ± 0.02 |
| CGTTTAGGCA | 1.02 ± 0.024 |
| CGTTTATTGA | 1.004 ± 0.0086 |
| CGTTTCAAGG | 0.975 ± 0.016 |
| CGTTTCGTTG | 0.9635 ± 0.0019 |
| CGTTTGACCT | 1.03 ± 0.026 |
| CGTTTGAGTG | 1.02 ± 0.023 |
| CGTTTGGGCA | 1.01 ± 0.017 |
| CGTTTGGGTC | 1.01 ± 0.031 |
| CGTTTGGGTG | 1.02 ± 0.055 |
